The values below come from patent US20220143136A1, “USE OF ANNEXINS IN PREVENTING AND TREATING MUSCLE MEMBRANE INJURY” (NORTHWESTERN UNIVERSITY, priority 2018, published 2022).

“Also recorded” adds a separate entry of the source.

The subject of test [1] is dysferlin-null (Dysf129) myofibers. Briefly: Laser-induced membrane injury, FM 4-64 dye uptake, dysferlin-null myofibers. It counts as cell-based, mouse. Conditions: LGMD2B model. The protocol: (§1) Myofiber isolation. Flexor digitorum brevis (FDB) fibers were isolated with methods that were described previously in (Demonbreun and McNally, 2015; Demonbreun et al., 2016b; DiFranco et al., 2009). Briefly, fibers were dissociated in 0.2% BSA plus collagenase type II (Cat #17101, Thermo Fisher Scientific, Waltham, Mass.) for 60 minutes at 37 degrees in 10% CO2. Fibers were then moved to Ringers solution and placed on MatTek confocal microscopy dishes (Cat #P35G-1.5-14-C, MatTek, Ashland Mass.).
(§2) Multiphoton laser injury and imaging. Isolated fibers were subjected to laser-induced damage at room temperature using the Nikon A1R-MP multiphoton microscope. Imaging was performed using a 25×1.1 NA objective directed by the NIS-Elements AR imaging software. Green fluorescence protein (GFP) and FM 4-64 were excited using a 920 nm wavelength laser and emission wavelengths of 575 nm and 629 nm were collected respectively. […] Fluorescence intensity and cap area were measured using Fiji (NIH).
(§3) For recombinant protein studies, myofibers were isolated from mice as described above. […] Cap size was assessed from acquired images in FIJI. […] Images were acquired and quantitated as described above. FM 4-64 fluorescence at endpoint was measured using FIJI.

Test [2] concerns wildtype myofibers. Briefly: Laser-induced membrane injury, FM 4-64 dye uptake. The class given is cell-based, mouse. Conditions: for FM 4-64 fluorescence area / dye uptake after laser injury: extracellular recombinant protein vs vehicle control.
For test [3], the system named is Sgcg-null mice. Briefly: Chronic injury, short-term chronic dosing and serum biomarker analysis. It counts as in vivo, mouse. Conditions: for serum creatine kinase (CK) at day 14: 1 mg/kg once every three days for 14 days, vs PBS control. As for the experimental part: Chronic Injury and biomarker analysis. […] Mice were injected once every 3 days for a period of 12 days. Serum was acquired as previously described (Demonbreun et al 2016a). Serum CK was analyzed for each mouse using the EnzyChrom Creatine Kinase Assay (catalog ECPK-100, BioAssay Systems) following the manufacturer's instructions. Lactate dehydrogenase was analyzed for each mouse using (LDH cytotoxicity kit MK401, Takara) following the manufacturer's instructions.
Serum collection and CK analysis.
Short-term chronic dosing regimen. […] An additional cohort of Sgcg-null mice had blood drawn as described above immediately prior to the first protein injection. Then, 1 mg/kg recombinant annexin A6 or annexin A2 (both produced by Northwestern's Protein Production Core) was injected into the right retro-orbital cavity of sedated mice, once every 3 days for a total of 5 injections and then blood drawn on day 14 post initial injection.

For test [4], the system named is wildtype myofibers. Kind of test: Ca2+-dependency of recombinant annexin A6 protection, FM 1-43 uptake after laser injury. It counts as cell-based, mouse. Conditions: 20 μg/ml rANXA6 pretreatment, 0 mM Ca2+ + EGTA compared with 1 mM Ca2+. The protocol: Multiphoton laser injury and imaging. Fibers were subjected to laser-induced damage at room temperature using the Nikon A1R-MP multiphoton microscope. Imaging was performed using a 25×1.1 NA objective directed by the NIS-Elements AR imaging software. Green fluorescence protein (GFP) and FM 4-64 were excited using a 920 nm wavelength laser and emission wavelengths of 575 nm and 629 nm were collected respectively. To induce laser damage on isolated myofibers, a diffraction limited spot (diameter approximately 410 nm) was created on the lateral membrane of the myofiber using a 920 nm wavelength laser at 10-15% laser power for 1 s. Time lapse images were collected as follows: one image was collected prior to damage, one image upon damage, then every 8 seconds for 80 seconds (10 images) followed by every 30 seconds for 5 minutes (10 images). At the end of the time lapsed image series, z-stack images were collected at 250 nm intervals through the damaged site on the myofiber directed by the NIS-Elements AR imaging software. The multiphoton was used to acquire data presented in FIG. 5, FIG. 10D and FIG. 19.
For recombinant protein calcium studies, myofibers were isolated from wildtype mice as described above. […] Images were acquired and quantitated as described above. FM 1-43 fluorescence over time was measured using FIJI and plotted overtime as F/F0.

For test [5], the system named is Anxa6^em1(GFP) myofibers. Kind of test: Laser injury of Anxa6em1(GFP) myofibers pretreated with recombinant annexin A6. It counts as cell-based, mouse. Conditions: 10-40 μg/ml recombinant protein pretreatment vs control. The protocol:
as §1, §2, §3

Where [6] appears, read: 1 mg/kg retro-orbital once every 3 days for 12 days, vs control.

B1: annexin A6: annexin A6 with carboxyl-terminal turboGFP or tdTomato tag, expressed from plasmid electroporated into myofibers (protein, UniProt P14824 2-673, looked up)
Annexin A6: AKIAQGAMYRGSVHDFPEFDANQDAEALYTAMKGFGSDKESILELITSRSNKQRQEICQNYKSLYGKDLIEDLKYELTGKFERLIVNLMRPLAYCDAKEIKDAISGVGTDEKCLIEILASRTNEQMHQLVAAYKDAYERDLESDIIGDTSGHFQKMLVVLLQGTRENDDVVSEDLVQQDVQDLYEAGELKWGTDEAQFIYILGNRSKQHLRLVFDEYLKTTGKPIEASIRGELSGDFEKLMLAVVKCIRSTPEYFAERLFKAMKGLGTRDNTLIRIMVSRSELDMLDIREIFRTKYEKSLYSMIKNDTSGEYKKALLKLCGGDDDAAGQFFPEAAQVAYQMWELSAVSRVELKGTVCAANDFNPDADAKALRKAMKGIGTDEATIIDIVTHRSNAQRQQIRQTFKSHFGRDLMADLKSEISGDLARLILGLMMPPAHYDAKQLKKAMEGAGTDEKTLIEILATRTNAEIRAINEAYKEDYHKSLEDALSSDTSGHFRRILISLATGNREEGGENRDQAQEDAQVAAEILEIADTPSGDKTSLETRFMTVLCTRSYPHLRRVFQEFIKKTNYDIEHVIKKEMSGDVKDAFVAIVQSVKNKPLFFADKLYKSMKGAGTDEKTLTRVMVSRSEIDLLNIRREFIEKYDKSLHQAIEGDTSGDFMKALLALCGGED
modifications: C-terminal turboGFP or tdTomato tag
notes: annexin A6 with carboxyl-terminal turboGFP or tdTomato tag, expressed from plasmid electroporated into myofibers
Turning to B1, the “FM 4-64 dye uptake after laser injury” value in test [1] (plasmid overexpression of annexin A6 vs control) is “significant reduction; also recorded: reduced”. In addition, in test [2] (plasmid overexpression of annexin A6-GFP vs mock electroporated control), the “FM 4-64 dye uptake after laser-induced injury” value is recorded as “decreased; also recorded: reduced”.

B2: recombinant annexin A6: recombinant human annexin A6 protein with C-terminal HIS tag (5186-A6-050, R&D systems); mouse protein from Northwestern core in one cohort (protein, UniProt P08133 2-673, looked up)
Annexin A6: AKPAQGAKYRGSIHDFPGFDPNQDAEALYTAMKGFGSDKEAILDIITSRSNRQRQEVCQSYKSLYGKDLIADLKYELTGKFERLIVGLMRPPAYCDAKEIKDAISGIGTDEKCLIEILASRTNEQMHQLVAAYKDAYERDLEADIIGDTSGHFQKMLVVLLQGTREEDDVVSEDLVQQDVQDLYEAGELKWGTDEAQFIYILGNRSKQHLRLVFDEYLKTTGKPIEASIRGELSGDFEKLMLAVVKCIRSTPEYFAERLFKAMKGLGTRDNTLIRIMVSRSELDMLDIREIFRTKYEKSLYSMIKNDTSGEYKKTLLKLSGGDDDAAGQFFPEAAQVAYQMWELSAVARVELKGTVRPANDFNPDADAKALRKAMKGLGTDEDTIIDIITHRSNVQRQQIRQTFKSHFGRDLMTDLKSEISGDLARLILGLMMPPAHYDAKQLKKAMEGAGTDEKALIEILATRTNAEIRAINEAYKEDYHKSLEDALSSDTSGHFRRILISLATGHREEGGENLDQAREDAQVAAEILEIADTPSGDKTSLETRFMTILCTRSYPHLRRVFQEFIKMTNYDVEHTIKKEMSGDVRDAFVAIVQSVKNKPLFFADKLYKSMKGAGTDEKTLTRIMVSRSEIDLLNIRREFIEKYDKSLHQAIEGDTSGDFLKALLALCGGED
modifications: C-terminal His tag
notes: recombinant human annexin A6 protein with C-terminal HIS tag (5186-A6-050, R&D systems); mouse protein from Northwestern core in one cohort
On to B2, for which the “FM 4-64 fluorescence area after laser injury” value in test [1] (extracellular recombinant protein vs vehicle control) is listed as “reduced; also recorded: decreased”. The “serum CK fold change post/pretreatment (Day 14/Day 0)” value in test [3] (1 mg/kg every 3 days for 14 days, compared to recombinant annexin A2, proteins from Northwestern's Protein Production Core) is recorded as “significantly reduced”. For the same molecule, the “serum creatine kinase (CK) at day 14” value in test [3] is recorded as “significantly decreased”; in test [3] (listed as rANXA6), “lower”. In addition, the “serum creatine kinase (CK)” value in test [3] (setting [6]) is “reduced”. The “serum lactate dehydrogenase (LDH)” value in test [3] (setting [6]) was “reduced”. Also, the “histology of gastrocnemius/soleus muscle” value in test [3] (14-day dosing, vs PBS) is on record as “qualitatively less injury”. The “FM 1-43 fluorescence accumulation at the lesion over time (F/F0)” value in test [4] is on record as “significantly increased”; in test [4] (listed as rANXA6), “significantly reduced at 1 mM”. Also, the “FM 4-64 dye uptake” value in test [5] is “reduction”. Besides, the “annexin A6GFP repair cap size” value in test [5] was “smaller; also recorded: reduced”. Moreover, the entries for the “FM 4-64 fluorescence area / dye uptake after laser injury” value in test [2] and in test [2] (listed as rANXA6) were “reduced” and “significantly smaller; also recorded: significantly less”, respectively.
